Measured values published in a protein production outcome set (Wang et al. 2014).

Assay: label from the status in PepcDB records
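Further: failed if final PepcDB status was selected cloned or expressed and not failed if soluble or beyond.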

Question: For “MASSLTKDSVTPGTPGTEKTFFGHPRGLATLFMTEMWERFSYYGMRALLPLYLVAPGGLGLGAGTATAIYSVYLSLVYLLTMPGGWFGDRVWGPRKTVAIAGGVIMLGHLTLALPSSGTFYAGLGLVAIGSGLLKANISTMVGQLYDGPDDPRRDGGFTVFYMGINLGAFAAPLTIGTIGENVNWHLGFALAAVGMGLGVLQFLIGSRHLAPHSSAVPKPLSVEEKTSTLRKAAFWAALAVVFYAIVGFSGHYTLNWILVPLTLLGVIIPVLVLTNIKRDKSLDRAEQSKMSAYIWFFVAAAVFWMIYDQGGSTLSLFADSSADNSVFGWSFPVSWYQSVNPVIIMALAPVFATVWLALNRRGKEPSTVVKFCGGLVLVGASFFLFLAPLGIAEGGHKAAAMWLVAIYFVQTCGELMLSPVGLSVTTKMAPVKYASQMMGVWFLAVTAGDATTGLLSIAGVDLNKTGIVAAEATLAVVAGVAIWMYRKRVKELMGDVR”, which protein production is on record?
Answer: The protein production was “failed”.

Question: Which protein production does the source give for “MKFDNYIFDFDGTLADTKKCGEVATQSAFKACGLTEPSSKEITHYMGIPIEESFLKLADRPLDEAALAKLIDTFRHTYQSIEKDYIYEFAGITEAITSLYNQGKKLFVVSSKKSDVLERNLSAIGLNHLITEAVGSDQVSAYKPNPEGIHTIVQRYNLNSQQTVYIGDSTFDVEMAQHAGVPSAAVTWGAHDARSLLHSNPDFIINDPSEINTVL” here?
Answer: The protein production was “failed”.

Question: Which protein production does the source give for “MSTIDFRPYGGFIFDMDGTLIDTMPAHLAAWQATADRFDFPFCQEWLHSLGGMPSFKIVAELNRHYGLSLDPQTVSKFKMETFAAMELQGDVIQCTGIVLEEYLGQKKIAVGTGSQRESAMRLLSHAGLIDRLDAVVTASDVENHKPCPDTFLLAADRLGIDAQNCLVFEDTELGKRAAHSAGMDCVMVEGNNLVFYPKR” here?
Answer: The protein production was “not failed”.

Question: Which protein production does the source give for “ASNTNLIVNYLPQDMTDRELYALFRAIGPINTCRIMRDYKTGYSYGYAFVDFTSEMDSQRAIKVLNGITVRNKRLKVSYARPGGESIKDTNLYVTNLPRTITDDQLDTIFGKYGSIVQKNILRDKLTGRPRGVAFVRYNKREEAQEAISALNNVIPEGGSQPLSVRLA” here?
Answer: Its protein production is “not failed”.

Question: Which protein production does the source give for “MAEKRTVRPFAGTERRAKGWIQEAALRMLNNNLHPDVAERPDELIVYGGIGKAARNWECYEAIVDTLLRLENDETLLIQSGKPVAVFRTHPDAPRVLIANSNLVPAWATWDHFHELDKKGLIMYGQMTAGSWIYIGSQGIVQGTYETFAEVARQHFGGTLAGTITLTAGLGGMGGAQPLAVTMNGGVCLAIEVDPARIQRRIDTNYLDTMTDSLDAALEMAKQAKEEKKALSIGLVGNAAEVLPRLVETGFVPDVLTDQTSAHDPLNGYIPAGLTLDEAAELRARDPKQYIARAKQSIAAHVRAMLAMQKQGAVTFDYGNNIRQVAKDEGVDDAFSFPGFVPAYIRPLFCEGKGPFRWVALSGDPEDIYKTDEVILREFSDNERLCHWIRMAQKRIKFQGLPARICWLGYGERAKFGKIINDMVAKGELKAPIVIGRDHLDSGSVASPNRETEGMKDGSDAIADWPILNALLNAVGGASWVSVHHGGGVGMGYSIHAGMVIVADGTKEAEKRLERVLTTDPGLGVIRHADAGYELAIRTAKEKGIDMPMLK” here?
Answer: The protein production was “not failed”.

Question: Which protein production does the source give for “PGIERLAEEATASFPEARIAVLSSDMFGTARALKERIEAIAAGEADIVIGTQLVAKGHNFPLLTLVGVIDADLGLQGSDLRAAERTFQLMRQVAGRAGRAEKPGQALLQTYQPE” here?
Answer: Its protein production is “failed”.

Question: Which protein production does the source give for “MGHPPQLPGGRCPMSQTMDFDTLRRAMADNYEQPEGPARNARAEQLLTEAEKLNIPLAVIEALGHQLKVYNYSSEKDKMFVPFARLLRMWDERPEDFDEYEIHSLHWVFKWMSAGMLGQPHIPLASIEKWLGEMEHRYRLAGHSERAVRSAEFSVANHIGDLARAERAYAAWLAADRDSMADCHACELHDQGWWQARKGADADALEVWRPVVEGEYVCAHEPHAILASSLVPLLRLGRLDEARAHHLRGFRLIRPMESMRGAYADHVEFCALSGNEARALELLAERPAYFTDSGEPRSKLDFMAVVALLMDRLVELGLGEQTVPGPAGRVWSARELAAHARAEALALAARFDERNGTAHVSERARERMDRRPLVDRLPLGVRSTRPAPTAPRPPAAPDSAPAPAVERDLRDVLAEARGRSDALRPDAMDAWAAVARAAGDHELDARDRAEIADHEAMSRGPEGAPLFERAAELYAEAGDPGEALAARARGAYVRALTGHSDDALRTINDLHRQVRALFAKDGTGVRQTAAVLVGRARILVHRVHETEGAGTTVAAAEEAVRELLEFAEPHIAQVRLASRAAEARAMLGELAALTGDAMTAAELLAQAAEGFLAAGLPWFAVEYEARLAGIARELGDAVEAERAARSALEHGVEYLEPAGQAQLHLQLAEVLGTTGQFGPAAEHALEAAHWADEAGEGPTFGAWARHQLGGFLLQQGRWAEAAEVLESALPDLTAETHGDGALVQTQWWLGDCHTELGEHREAAERWLRAAEIARHWPEQRDHAMLAHLAAEALGHAGLPAEADRAYTRAGDLWRDLGNVHGLARALRARAWLAAREEDELDPARELMAQAVRECEAALEGATEGEDGARERLVAELGHTHRQFGDLVARSVQDGDRGADFQGAFEEALGHVTRAVAVFAPLGASALDLRTGAELAAGWLEADLHRPAEATARARAVLAAYANRQEADDETARARCAEADRMLELLGTRTGQ” here?
Answer: The protein production was “failed”.

Question: Which protein production does the source give for “MKRFLSIAMALCIGLTMSLDANAKRFGGGKSVGAAPTHQTRQAAPTAPGAPAAAATAGAAGAAGAAAKAGGASRWLGPLAGIAAGGLLASMFMGGGFQGMQIFDILIMAVIAFVIFRFIAARRRKQQEQYAPAGHAPMQREAFEPQQPAGGSIFGGSPAPAARPVINAPAWFNEERFIEAARSHFQSLQQHWDANEMDKIAEFVTPQMLQFLKQERADLGDGFQSTYIDNLQVQLEGVDDRADKTIATLTFSGVSKTSRFDQGEVFSESWNMERAQGDNQPWLVAGIRQNG” here?
Answer: Its protein production is “failed”.

Question: Which protein production does the source give for “MTISNKTLTAAAAGLAAVLAVLLVPALAGQSAHTGHTMPAHTPPAQTAPAAQKAGAQALPVTVQGATVAAVPPSIRDTAAYMTLTNKSDQPIKLVGAATPLATSPMLMTTTHSGGMAGMKMVPWLTIPARGTLTLQRDGDHVMLMGLKRPLKVGETVNITLKATDGRTLNVAATVKKN” here?
Answer: Its protein production is “not failed”.

Question: For “MIDLDPRLAADTHPVTQWPLSQVRLMDDVRFPWLVLIPDRPGLVEIFDLPAEDQDKMWREVAHAAATLKTLSGAHKINIGALGNQVSQLHIHIIARRPDDGAWPGPVWGVGERQRYDQAELAEFLSGLRAQLIAPGQGIVEEGQTR”, which protein production is on record?
Answer: Its protein production is “failed”.

Question: With “MNVWQVVGYKHSGKTTLMEKWVAAAVREGWRVGTVKHHGHGGEPARPEGVDSVRHERAGAVATAVEGDGLLQLHLRRPLWRLDDVLALYAPLRLDLVLVEGYKQERHPKVVLVRSEEDWASLQHLANIRAVIAWEPLEGPLAHPVFSLADDDEYIPWLMNEVRTRT” as the sequence, how does the protein production read?
Answer: The protein production was “not failed”.

Question: For “MAFWAGGSPSVVDYFPSEDFYRCGYCKNESGSRSNGMWAHSMTVQDYQDLIDRGWRRSGKYVYKPVMNQTCCPQYTIRCRPLQFQPSKSHKKVLKKMLKFLAKGEVPKGSCEDEPMDSTMDDAVAGDFALINKLDIQCDLKTLSDDIKESLESEGKNSKKEEPQELLQSQDFVGEKLGSGEPSHSVKVHTVPKPGKGADLSKPPCRKAKEIRKERKRLKLMQQNPAGELEGFQAQGHPPSLFPPKAKSNQPKSLEDLIFESLPENASHKLEVRLVPVSFEDPEFKSSFSQSFSLYVKYQVAIHQDPPDECGKTEFTRFLCSSPLEAETPPNGPDCGYGSFHQQYWLDGKIIAVGVIDILPNCVSSVYLYYDPDYSFLSLGVYSALREIAFTRQLHEKTSQLSYYYMGFYIHSCPKMKYKGQYRPSDLLCPETYVWVPIEQCLPSLENSKYCRFNQDPEAVDEDRSTEPDRLQVFHKRAIMPYGVYKKQQKDPSEEAAVLQYASLVGQKCSERMLLFRN”, which protein production is on record?
Answer: Its protein production is “failed”.

Question: Which protein production does the source give for “MPLTIRPARFEELPAVQAIERLSARRFVGWIDALADDDPSPLERLAERSASGGLLVADVETGEGPKAAGFVMFRPMEDSLYIEQIDVAPAFERRRIGATLINAVADRAVALGLSRLTLSTFREIPWNAPYYRRLGFVDLDDEA” here?
Answer: Its protein production is “failed”.

Question: Which protein production does the source give for “MNVPDMILYNGKITTLDPSQPEVSAIAITDGLITAVGGDELLNSATEKTKKIDLKRKRAIPGLEHHHHHH” here?
Answer: Its protein production is “not failed”.

Question: For “MERNANYALVGAISLALFMGLVIFAVWLAKLSFNRDYDVYDILFVGPVRGLSQGGEVHFNGIKVGEVTRIELDKTDTNRVIARVRVTSDVPIKVDSYATLEPQGITGVNYVQITAGAPNKELLKDTVKTGKVPVIRTQRSALSDLLEGGGTVLTRTIEALDRVNRVLSDRNIKSFGATLTNVQAVTQEMRDRKEILADAQKALQSIDQTAQSITELSNSANTLVDGDAKRTLKELGDAAAELRATAKDARGMVTKLEGPASDFATTGLPQLSSAIVTLQSAAESLDRLVGEVEQNPRGVVGKAPAKEVEVKPLEHHHHHH”, which protein production is on record?
Answer: Its protein production is “not failed”.

Question: Which protein production does the source give for “MKIKPPLPTVTRTHARALRKELTDAERALWRCLRSNQLHDFKFRRQHPIPPYIADFCCIDAALIIELDGSQHQASSDQARTRWLQSKGWTVLRFWNNDVLFSLDAVVETIFKMVATPYPHPNPSPGGRGA” here?
Answer: The protein production was “failed”.

Question: With “MKKGSLAIVLGSLLASGAFYTALADGMPAKQQHNNTGESVELHFHYPIKGKQEPKNSHLVVLIEPKIEINKVIPESYQKEFEKSLFLQLSSFLERKGYSVSQFKDASEIPQDIKEKALLVLRMDGNVAILEDIVEESDALSEEKVIDMSSGYLNLNFVEPKSEDIIHSFGIDVSKIKAVIERVELRRTNSGGFVPKTFVHRIKETDHDQAIRKIMNQAYHKVMVHITKELSKKHMEHYEKVSSEMKKRK” as the sequence, how does the protein production read?
Answer: The protein production was “failed”.

Question: For “MKEIKEITKKDVQDAEIYLYGSVVEGDYSIGLSDIDVAIVSDVFEDRNRKLEFFGKITKKFFDSPFEFHILTKKEWKMSKRFIRKYRRLDLIT”, which protein production is on record?
Answer: Its protein production is “not failed”.

Question: For “MNKFLRVLFILVILAMTDAIIFQLFFPTYMGSHSGYGISVGWQREIGIWNVTVLVILITVNLKYDWFYLRAVLMALIIGGLGIGTNHFLSYLQYRHSVNAIGALENYLLVLGWIIGWWLENSSRKRV”, which protein production is on record?
Answer: The protein production was “failed”.

Question: For “MEISEQESVLEVKKRLGQFLQIPTSSITLFVSCWELIDGLDIEDYPIISHGTRIDLTVTPLFTAPSFIHAAVRKIHVTVKFPSKQFTVEVDRTETVSSLKDKIHIVENTPIKRMQLYYSGIELADDYRNLNEYGITEFSEIVVFLKSINRAKDVAPTSSSLFNGARIPVEIKDTCTISEMREGLQANKTLPRDEYIFVHKQRIMRENCSLRWHGVENGDTLFVFKGSISREGF”, which protein production is on record?
Answer: Its protein production is “failed”.

Question: Which protein production does the source give for “MRGDKFTLRDSLCLKVDGGRGVCLKGDGGRGVCLKGDGGRGVCLKGDSCDFNHSYTLPRREEVEKHQIELFKEEILSYMRKWISPHEFLQKVLDFNLKSLLVDLAATFNVRYPERQRLLV” here?
Answer: Its protein production is “failed”.

Question: For “MALLMSVKRQLYLWHRWLGIVACLFMALWFVSGVVMLYVGYPKLTPAERLAHLPALPAGCCAELPEHWAQQPLKALRLTSLGGRAHHLLELADGRRVILDAASGEPLARADAAWALANARQYAGEAGLAYLGTVDEDMWTHSRALDGDRPLHHVQVDDTAGTWLYLSSRTGEVVRDATAQERAWNWVGAWLHWLYPLRGGFGFDNGWRTLVIGLSLGATVMALLGMTVGILRLRLRKRYRSGSCSPYPGGWLRWHHIGGLLFGTVLVLWVFSGLMSMRPWGVTDSRSQLAPQALRQGPLRAMDIGQTVAQAMASLGREPGFNPVEIQWQRLGGDTFLVARNAAGDSRILEAGAPPARALSEQRLLTAARAMAAGVVVQANWQGHYDAYYFTRDAQSMYGFQSRPLPVLRLRFDDPASTWVYLDPASAEVVASHDARQRAGRWLFNLLHSWDLQPLLQRPVLREGLIIALSIGGLVVSLSGVVLGWRRLRRMTARVRG”, which protein production is on record?
Answer: The protein production was “failed”.
